Experimental data published in patent US20260248972A1, “DUAL RECEPTOR TARGETING RADIOLIGANDS AND USES THEREOF RELATED APPLICATIONS” (priority 2022, published 2026).
Like-named read-outs stand apart in the source and are kept apart here.

Tests used:
CCK2R [1] = target: T1, CCK2R (Homo sapiens, UniProt P32239); experiment: Competitive binding (FACS) on CCK2R-transfected HEK 293T cells with Cy5-labeled F11N derivative; conditions: HEK 293T transfected, Cy5-labeled F11N derivative competitive ligand (Table 4); read-out: CCK2R IC50
T1 construct: expressed in transfected cells; host or cells: HEK 293T cells
T1 sequence (P32239 1-447): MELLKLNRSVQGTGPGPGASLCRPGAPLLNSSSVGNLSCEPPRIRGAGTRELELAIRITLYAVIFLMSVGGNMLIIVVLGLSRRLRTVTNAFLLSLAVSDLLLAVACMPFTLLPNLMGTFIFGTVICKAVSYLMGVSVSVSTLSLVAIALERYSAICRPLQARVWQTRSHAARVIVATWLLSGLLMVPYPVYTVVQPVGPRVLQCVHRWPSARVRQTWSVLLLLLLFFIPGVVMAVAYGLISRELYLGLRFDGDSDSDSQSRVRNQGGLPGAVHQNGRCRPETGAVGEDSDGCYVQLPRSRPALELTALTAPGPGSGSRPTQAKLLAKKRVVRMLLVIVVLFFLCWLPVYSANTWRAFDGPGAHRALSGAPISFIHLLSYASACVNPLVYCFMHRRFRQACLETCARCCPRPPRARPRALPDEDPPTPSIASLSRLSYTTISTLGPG
Experimental: Binding Affinity Tested by Using Cy5-Labled Competitive Ligands.
HEK 293T cells were transfected with SSTR2 or CCK2R-expressing plasmid by Lipofectamine 2000 reagent. 24 hours after transfection, cells were harvested and suspended with assay buffer (1% OVA in DMEM). […] The testing compound was further supplemented into the wells at different concentrations. After incubation for 1 hour at dark, cells were washed and suspended in FACS buffer (1% OVA in DPBS).

in vivo = conditions: BALB/c nude, mouse, in vivo, iv, total radioactivity
In short: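 Tissue uptake given as % ID and % ID/g from γ counting of organs taken 4, 24 and 72 h after injection into BALB/c nude mice carrying subcutaneous AR42J xenografts (0.05-0.50 g). Tracers were ^177Lu-labelled at 95° C for 15 min in pH 4.5 NaOAc buffer and used neat or diluted in PBS containing 3 mg/mL ascorbate.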

SSTR2 = target: T2, SSTR2 (Rattus norvegicus, UniProt P30680); experiment: Competitive cell-binding assay on AR42J cells with 125I-C1 as competitive ligand
T2 construct: host or cells: AR42J cells
In short: (§1)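 Displacement of 125I-C1 or 125I-C3 tracer (0.02 μCi/well) by 0-10000 nM compound measured in triplicate on suspended AR42J cells in BSA-containing RPMI-1640, 37° C. for 1 h. After filtration washes, filter-bound counts gave IC50 via nonlinear regression fit.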

CCK2R [2] = target: T3, CCK2R (Rattus norvegicus, UniProt P30553); experiment: Competitive cell-binding assay on AR42J cells with 125I-C3 as competitive ligand
T3 construct: host or cells: AR42J cells
T3 sequence (P30553 1-452): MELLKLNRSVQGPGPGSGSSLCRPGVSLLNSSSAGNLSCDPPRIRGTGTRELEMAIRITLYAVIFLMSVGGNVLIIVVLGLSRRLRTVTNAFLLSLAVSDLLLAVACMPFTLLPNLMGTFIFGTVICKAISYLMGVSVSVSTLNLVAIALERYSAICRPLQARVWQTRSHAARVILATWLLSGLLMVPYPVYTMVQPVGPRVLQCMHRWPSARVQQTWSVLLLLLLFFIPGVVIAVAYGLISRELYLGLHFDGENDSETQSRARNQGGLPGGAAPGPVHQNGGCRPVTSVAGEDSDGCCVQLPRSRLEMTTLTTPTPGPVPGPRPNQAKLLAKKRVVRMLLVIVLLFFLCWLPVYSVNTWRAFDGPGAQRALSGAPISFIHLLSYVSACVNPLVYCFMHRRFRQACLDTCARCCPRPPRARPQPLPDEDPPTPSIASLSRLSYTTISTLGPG
In short: as §1

[3] = T/K Tumor/Kidney ratio, 177Lu-labeled, 24 hours after dosing
[4] = T/L Tumor/Liver ratio, 177Lu-labeled, 24 hours after dosing
[5] = T/P Tumor/Pancreas ratio, 177Lu-labeled, 24 hours after dosing
[6] = T/Sp Tumor/Spleen ratio, 177Lu-labeled, 24 hours after dosing
[7] = T/St Tumor/Stomach ratio, 177Lu-labeled, 24 hours after dosing
[8] = uptake Kidney, 177Lu-labeled, 24 hours after dosing (Table 5)
[9] = uptake Liver, 177Lu-labeled, 24 hours after dosing (Table 5)
[10] = uptake Pancreas, 177Lu-labeled, 24 hours after dosing (Table 5)
[11] = uptake Spleen, 177Lu-labeled, 24 hours after dosing (Table 5)
[12] = uptake Stomach, 177Lu-labeled, 24 hours after dosing (Table 5)
[13] = uptake Tumor, 177Lu-labeled, 24 hours after dosing (Table 5)

T2 sequence (P30680 whole entry): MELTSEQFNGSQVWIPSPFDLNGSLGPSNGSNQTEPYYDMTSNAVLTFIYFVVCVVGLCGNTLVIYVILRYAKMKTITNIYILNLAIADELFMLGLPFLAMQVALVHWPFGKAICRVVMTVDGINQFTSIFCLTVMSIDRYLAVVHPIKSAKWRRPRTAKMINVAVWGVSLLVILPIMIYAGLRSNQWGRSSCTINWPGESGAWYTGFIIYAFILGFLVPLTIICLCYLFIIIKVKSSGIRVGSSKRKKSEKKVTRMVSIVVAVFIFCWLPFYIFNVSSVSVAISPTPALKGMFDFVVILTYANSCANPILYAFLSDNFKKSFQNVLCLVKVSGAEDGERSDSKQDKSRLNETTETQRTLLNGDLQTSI

Row | Compound | Relative Binding Affinity SSTR2 (SSTR2; based on mean IC50, C-1 = 1.00) | Relative Binding Affinity CCK2R (CCK2R [2]; based on mean IC50, C-2 = 1.00) | tissue to tissue ratio at 24 h (in vivo; T/K Tumor/Kidney ratio) | tissue to tissue ratio at 24 h (in vivo; T/L Tumor/Liver ratio) | tissue to tissue ratio at 24 h (in vivo; T/P Tumor/Pancreas ratio) | tissue to tissue ratio at 24 h (in vivo; T/Sp Tumor/Spleen ratio) | tissue to tissue ratio at 24 h (in vivo; T/St Tumor/Stomach ratio) | tissue uptake at 24 h (in vivo; uptake Kidney) [%ID/g] | tissue uptake at 24 h (in vivo; uptake Liver) [%ID/g] | tissue uptake at 24 h (in vivo; uptake Pancreas) [%ID/g] | tissue uptake at 24 h (in vivo; uptake Spleen) [%ID/g] | tissue uptake at 24 h (in vivo; uptake Stomach) [%ID/g] | tissue uptake at 24 h (in vivo; uptake Tumor) [%ID/g] | tissue to tissue ratio at 24 h (in vivo; [3]) | tissue to tissue ratio at 24 h (in vivo; [4]) | tissue to tissue ratio at 24 h (in vivo; [5]) | tissue to tissue ratio at 24 h (in vivo; [6]) | tissue to tissue ratio at 24 h (in vivo; [7]) | tissue uptake at 24 h (in vivo; [8]) [%ID/g] | tissue uptake at 24 h (in vivo; [9]) [%ID/g] | also measured
1 | CCCC[C@H](NC(=O)[C@H](Cc1c[nH]c2ccccc12)NC(=O)CNC(=O)[C@H](Cc1ccc(O)cc1)NC(=O)[C@H](C)NC(=O)[C@@H](CCC(=O)O)NC(=O)[C@@H](CCC(=O)O)NC(=O)[C@@H](CCC(=O)O)NC(=O)[C@@H](CCC(=O)O)NC(=O)[C@@H](CCC(=O)O)NC(=O)[C@@H](CCC(=O)O)NC(=O)CN1CCN(CC(=O)O)CCN(CC(=O)O)CCN(CC(=O)O)CC1)C(=O)N[C@@H](CC(=O)O)C(=O)N[C@@H](Cc1ccccc1)C(N)=O [Compound C5, DOTA-e-e-e-e-e-e-Ala-Tyr-Gly-Trp-Nle-Asp-Phe-NH2, reference compound] | – | – | – | – | – | – | – | – | – | – | – | – | – | – | – | – | – | – | – | – | IC50 (CCK2R [1]): 25.7 nM
2 | C[C@@H](O)[C@H](NC(=O)[C@@H]1CSSC[C@H](NC(=O)[C@@H](Cc2ccccc2)NC(=O)[C@H](CCCCNC(=O)c2cccc(NC(=O)N[C@@H]3CN(C4CCCCC4)c4ccccc4N(CC(=O)C(C)(C)C)C3=O)c2)NC(=O)CN2CCN(CC(=O)O)CCN(CC(=O)O)CCN(CC(=O)O)CC2)C(=O)N[C@@H](Cc2ccc(O)cc2)C(=O)N[C@H](Cc2c[nH]c3ccccc23)C(=O)N[C@@H](CCCCN)C(=O)N[C@@H]([C@@H](C)O)C(=O)N1)C(=O)O [Compound I-34, DOTA-K(Z360)-f[CYwKTC]T-OH] | – | – | – | – | – | – | – | – | – | – | – | – | – | 3.7 | 1.1 | 7 | 2.4 | 4 | 6.1 | 19.8 | tissue uptake at 24 h (in vivo; [10]): 3.2 %ID/g; tissue uptake at 24 h (in vivo; [11]): 9.5 %ID/g; tissue uptake at 24 h (in vivo; [12]): 5.7 %ID/g; tissue uptake at 24 h (in vivo; [13]): 22.7 %ID/g; Relative Binding Affinity SSTR2 (SSTR2): 1.49; Relative Binding Affinity CCK2R (CCK2R [2]): 5.9
3 | C[C@@H](O)[C@H](NC(=O)[C@@H]1CSSC[C@H](NC(=O)[C@@H](Cc2ccccc2)NC(=O)[C@H](CCCCNC(=O)COCCOCCNC(=O)c2cccc(NC(=O)N[C@@H]3CN(C4CCCCC4)c4ccccc4N(CC(=O)C(C)(C)C)C3=O)c2)NC(=O)CN2CCN(CC(=O)O)CCN(CC(=O)O)CCN(CC(=O)O)CC2)C(=O)N[C@@H](Cc2ccc(O)cc2)C(=O)N[C@H](Cc2c[nH]c3ccccc23)C(=O)N[C@@H](CCCCN)C(=O)N[C@@H]([C@@H](C)O)C(=O)N1)C(=O)O [Compound I-36, DOTA-K(-OEG-Z360)-f[CYwKTC]T-OH] | – | – | – | – | – | – | – | – | – | – | – | – | – | 2.9 | 4.3 | 13 | 36 | 11 | 7.4 | 5 | tissue uptake at 24 h (in vivo; [10]): 1.6 %ID/g; tissue uptake at 24 h (in vivo; [11]): 0.6 %ID/g; tissue uptake at 24 h (in vivo; [12]): 2 %ID/g; tissue uptake at 24 h (in vivo; [13]): 21.6 %ID/g; IC50 (SSTR2): 1.6 nM; Relative Binding Affinity SSTR2 (SSTR2): 1.76; IC50 (CCK2R [2]): 4.2 nM; Relative Binding Affinity CCK2R (CCK2R [2]): 4.0

Continued, in another order:

Row | Relative Binding Affinity SSTR2 (SSTR2; based on mean IC50, C-1 = 1.00) | Relative Binding Affinity CCK2R (CCK2R [2]; based on mean IC50, C-2 = 1.00) | Compound | tissue to tissue ratio at 24 h (in vivo; T/K Tumor/Kidney ratio) | tissue to tissue ratio at 24 h (in vivo; T/L Tumor/Liver ratio) | tissue to tissue ratio at 24 h (in vivo; T/P Tumor/Pancreas ratio) | tissue to tissue ratio at 24 h (in vivo; T/Sp Tumor/Spleen ratio) | tissue to tissue ratio at 24 h (in vivo; T/St Tumor/Stomach ratio) | tissue uptake at 24 h (in vivo; uptake Kidney) [%ID/g] | tissue uptake at 24 h (in vivo; uptake Liver) [%ID/g] | tissue uptake at 24 h (in vivo; uptake Pancreas) [%ID/g] | tissue uptake at 24 h (in vivo; uptake Spleen) [%ID/g] | tissue uptake at 24 h (in vivo; uptake Stomach) [%ID/g] | tissue uptake at 24 h (in vivo; uptake Tumor) [%ID/g] | tissue to tissue ratio at 24 h (in vivo; [3]) | tissue to tissue ratio at 24 h (in vivo; [4]) | tissue to tissue ratio at 24 h (in vivo; [5]) | tissue to tissue ratio at 24 h (in vivo; [6]) | tissue to tissue ratio at 24 h (in vivo; [7]) | tissue uptake at 24 h (in vivo; [8]) [%ID/g] | tissue uptake at 24 h (in vivo; [9]) [%ID/g] | also measured
4 | 0.46 | 270 | C[C@@H](O)[C@H](NC(=O)[C@@H]1CSSC[C@H](NC(=O)[C@@H](Cc2ccccc2)NC(=O)[C@H](CCCCNC(=O)CC[C@H](NC(=O)CNC(=O)c2cccc(NC(=O)N[C@@H]3CN(C4CCCCC4)c4ccccc4N(CC(=O)C(C)(C)C)C3=O)c2)C(=O)O)NC(=O)COCCOCCNC(=O)CCC(C(=O)O)N2CCN(CC(=O)O)CCN(CC(=O)O)CCN(CC(=O)O)CC2)C(=O)N[C@@H](Cc2ccc(O)cc2)C(=O)N[C@H](Cc2c[nH]c3ccccc23)C(=O)N[C@@H](CCCCN)C(=O)N[C@@H]([C@@H](C)O)C(=O)N1)C(=O)O (stereo partly shown) [Compound I-19, DOTAGA- OEG- K(-gE- G- Z360)- f[CYwKTC]T- OH] | 0.6 | 35 | 15 | 46 | 4.3 | 51.6 | 0.96 | 2.07 | 0.68 | 7.24 | 31.3 | – | – | – | – | – | – | – | –
5 | 7.67 | 3.4 | C[C@@H](O)[C@H](NC(=O)[C@@H]1CSSC[C@H](NC(=O)[C@@H](Cc2ccccc2)NC(=O)COCCOCCNC(=O)COCCOCCNC(=O)[C@H](CCCCNC(=O)c2cccc(NC(=O)N[C@@H]3CN(C4CCCCC4)c4ccccc4N(CC(=O)C(C)(C)C)C3=O)c2)NC(=O)CN2CCN(CC(=O)O)CCN(CC(=O)O)CCN(CC(=O)O)CC2)C(=O)N[C@@H](Cc2ccc(O)cc2)C(=O)N[C@H](Cc2c[nH]c3ccccc23)C(=O)N[C@@H](CCCCN)C(=O)N[C@@H]([C@@H](C)O)C(=O)N1)C(=O)O [Compound I-39, DOTA-K(Z360)-OEG-OEG-f[CYwKTC]T-OH] | 2.3 | 9.9 | 29 | 89 | 5.9 | 12 | 2.78 | 0.94 | 0.31 | 4.63 | 27.5 | – | – | – | – | – | – | – | IC50 (SSTR2; AR42J cells, 125I-C1 competitive ligand, 37° C. 1 h, read-out: SSTR2/IC50): 0.367 nM; IC50 (CCK2R [2]; AR42J cells, 125I-C3 competitive ligand, 37° C. 1 h, read-out: CCK2R/IC50): 4.9 nM
6 | 0.54 | 115 | C[C@@H](O)[C@H](NC(=O)[C@@H]1CSSC[C@H](NC(=O)[C@@H](Cc2ccccc2)NC(=O)[C@H](CCCCNC(=O)COCCOCCNC(=O)COCCOCCNC(=O)c2cccc(NC(=O)N[C@@H]3CN(C4CCCCC4)c4ccccc4N(CC(=O)C(C)(C)C)C3=O)c2)NC(=O)CN2CCN(CC(=O)O)CCN(CC(=O)O)CCN(CC(=O)O)CC2)C(=O)N[C@@H](Cc2ccc(O)cc2)C(=O)N[C@H](Cc2c[nH]c3ccccc23)C(=O)N[C@@H](CCCCN)C(=O)N[C@@H]([C@@H](C)O)C(=O)N1)C(=O)O [Compound I-42, DOTA-K(-OEG-OEG-Z360)-f]CYwKTC]T-OH] | 1.1 | 3.3 | 12 | 62 | 8.8 | 17.8 | 5.6 | 1.6 | 0.3 | 2.1 | 18.7 | – | – | – | – | – | – | – | –
